Experimental data: the supplement of paper PMC7877785
± gives the uncertainty stated by the source.

Test: self-splicing fitness, log relative to wild type (ln ratio); higher = more splicing; Tetrahymena group I intron in knt gene, E. coli kanamycin selection, DiMSum; sequences stand for … in CUCUCU…GGAGGGAAAAGUUAUCAGGCAUGCACCUGGUAGCUAGUCUUUAAACCAAUAGAUUGCAUCGGUUUAAAAGGCAAGACCGUCAAAUUGCGGGAAAGGGGUCAACAGCCGUUCAGUACCAAGUCUCAGGGGAAACUUUGAGAUGGCCUUGCAAAGGGUAUGGUAAUAAGCUGACGGACAUGGUCCUAACCACGCAGCCAAGUCCUAAGUCAACAGAUCUUCUGUUGAUAUGGAUGCAGUUCACAGACUAAAUGUCGGUCGGGGAAGAUGUAUUCUUCUCAUAAGAUAUAGUCGGACCUCUCCUUAAUGGGAGCUAGCGGAUGAAGUGAUGCAACACUGGAGCCGCUGGGAACUAAUUUGUAUGCGAAAGUAUAUUGAUUAGUUUUGGAGUACUCGUGGUCG
Summary of the method: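 Colonies from six replicate transformations of E. coli BL21(DE3) were pooled and amplicon-sequenced on an Illumina HiSeq 2500. The library placed an intron with all eight P1ex-region nucleotides randomised inside the knt kanamycin-resistance gene on pET-22b(+), and cells grew overnight at 37°C or 30°C on LB agar with or without 25 μg/mL kanamycin (plus 100 μg/mL carbenicillin, 50 μM IPTG, 0.2% rhamnose). Fitness is the DiMSum error-weighted combination of wild-type-normalised replicate fold changes, kanamycin versus none.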

Sequence	self-splicing fitness (ln) (37 °C)	self-splicing fitness (ln) (30 °C)
GGUGAGCAAUAUUACGCUGA	-2.84 ± 0.48	
GGUGAGCAAUAUUACGCUUA	-1.92 ± 0.33	-3.17 ± 0.35
GGUGAGCAAUAUUACGGGCG	-0.473 ± 0.14	-1.39 ± 0.14
GGUGAGCAAUAUUACGUAAU	-0.991 ± 0.31	-1.71 ± 0.27
GGUGAGCAAUAUUACGUAGU	-2.1 ± 0.29	-3.37 ± 0.23
GGUGAGCAAUAUUACGUCUG	-2.03 ± 0.14	-3.31 ± 0.17
GGUGAGCAAUAUUACGUGAU	-1.71 ± 0.18	-2.45 ± 0.13
GGUGAGCAAUAUUACGUGUU	-1.87 ± 0.27	
GGUUAGCAAUAUUACGAAUA	-1.85 ± 0.26	-1.94 ± 0.19
GGUUAGCAAUAUUACGAGUA	-1.58 ± 0.2	-4.51 ± 0.46
GGUUAGCAAUAUUACGAUAG	-1.14 ± 0.32	-1.82 ± 0.28
GGUUAGCAAUAUUACGCAUG	-1.57 ± 0.14	-1.89 ± 0.17
GGUUAGCAAUAUUACGCGGU	-2.36 ± 0.35	-2.85 ± 0.49
GGUUAGCAAUAUUACGCUAA		-1.98 ± 0.41
GGUUAGCAAUAUUACGCUCG	0.204 ± 0.28	-0.367 ± 0.2
GGUUAGCAAUAUUACGCUGA	-2.24 ± 0.13	-3.14 ± 0.14
GGUUAGCAAUAUUACGGCGU	0.137 ± 0.13	-0.725 ± 0.1
GGUUAGCAAUAUUACGGGAG	-2.55 ± 0.25	-3.49 ± 0.24
GGUUAGCAAUAUUACGGGCA	-0.182 ± 0.079	-0.0835 ± 0.083
GGUUAGCAAUAUUACGGGGC	-2.66 ± 0.4	
GGUUAGCAAUAUUACGGGUU	-1.48 ± 0.12	-1.99 ± 0.1
GGUUAGCAAUAUUACGGUGC	-0.186 ± 0.12	-1.07 ± 0.088
GGUUAGCAAUAUUACGGUGG	-1.57 ± 0.31	
GGUUAGCAAUAUUACGUACA	-0.469 ± 0.11	-0.759 ± 0.11
GGUUAGCAAUAUUACGUGAA	-0.9 ± 0.14	-0.107 ± 0.13
GGUUAGCAAUAUUACGUGGG	-2.54 ± 0.18	-2.93 ± 0.2
